Laboratory results: publication PMC8809517, “Cofactor-independent RNA editing by a synthetic S-type PPR protein”
Substitutions are numbered along the chain they refer to.

T1: GFP-9S library array, motif 4 ND N98L;D124Q (synthetic construct, N98L;D124Q)
T1 chain: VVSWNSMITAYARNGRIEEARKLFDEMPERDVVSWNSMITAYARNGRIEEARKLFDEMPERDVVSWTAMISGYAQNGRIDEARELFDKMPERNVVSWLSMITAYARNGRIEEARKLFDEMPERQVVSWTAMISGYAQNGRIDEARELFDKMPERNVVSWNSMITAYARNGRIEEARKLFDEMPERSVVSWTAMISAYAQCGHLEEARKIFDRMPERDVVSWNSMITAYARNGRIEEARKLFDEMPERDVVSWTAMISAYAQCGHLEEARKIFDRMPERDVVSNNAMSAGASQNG

T2: GFP-9S library array, motif 4 ND N98P;D124E (synthetic construct, N98P;D124E)
T2 chain: T1 chain with L98P, Q124E

T3: GFP-9S library array, motif 4 ND N98F;D124M (synthetic construct, N98F;D124M)
T3 chain: T1 chain with L98F, Q124M

T4: GFP-9S library array, motif 4 ND N98G;D124T (synthetic construct, N98G;D124T)
T4 chain: T1 chain with L98G, Q124T

T5: GFP-9S library array, motif 4 ND N98I;D124K (synthetic construct, N98I;D124K)
T5 chain: T1 chain with L98I, Q124K


Experiments:
Experiment in all cases: high-throughput RNA pulldown from lysate on Ni-NTA beads; HRP: 50 mM Tris pH 8, 150 mM NaCl, 1 mM beta-mercaptoethanol, 50 ug/ml BSA, 3 ug/ml yeast RNA, 0.5% heparin; ITC and FP: Tris pH 8, 200 mM KCl, 5% glycerol; MST: 50 mM Tris pH 8, 200 mM NaCl, 1 mM DTT, BSA, heparin, 0.05% Tween 20
Conditions in all cases: tags: N-terminal His-eGFP
[1] = biological target: T1, GFP-9S library array, motif 4 ND …
[2] = biological target: T2, GFP-9S library array, motif 4 ND …
[3] = biological target: T3, GFP-9S library array, motif 4 ND …
[4] = biological target: T4, GFP-9S library array, motif 4 ND …
[5] = biological target: T5, GFP-9S library array, motif 4 ND …

| Binder | Kd ([1]; label: 5' IRDye 800CW) [nM] | Kd ([2]; label: 5' IRDye 800CW) [nM] | Kd ([3]; label: 5' IRDye 800CW) [nM] | Kd ([4]; label: 5' IRDye 800CW) [nM] | Kd ([5]; label: 5' IRDye 800CW) [nM] | Kd ([1]; label: 5' Cy5) [nM] | Kd ([2]; label: 5' Cy5) [nM] | Kd ([3]; label: 5' Cy5) [nM] | Kd ([4]; label: 5' Cy5) [nM] | Kd ([5]; label: 5' Cy5) [nM] |
| --- | --- | --- | --- | --- | --- | --- | --- | --- | --- | --- |
| AUUAAACGUGA (ssRNA) [IR-rpoA-A] | 80 | 386 | 230 | 108 | 197 |  |  |  |  |  |
| AUUAUACGUGA (ssRNA) [IR-rpoA-U] | 58.9 | 309 | 194 | 236 | 183 |  |  |  |  |  |
| AUUAGACGUGA (ssRNA) [Cy5-rpoA-G] |  |  |  |  |  | 68.5 | 220 | 69.1 | 436 | 121 |
| AUUACACGUGA (ssRNA) [Cy5-rpoA] |  |  |  |  |  | 60 | 204 | 76.7 | 169 | 131 |
